This note sets out measurements from PMC12132311 (bioRxiv, 2025).

Assay [1] addresses Carboxyl terminus of Hsc70-interacting protein (CHIP/STUB1), human, WT, full length (human, UniProt Q9UNE7). Briefly: cryo-EM structure.
A further assay addresses Biotinylated CHIP (Homo sapiens, UniProt Q9UNE7, biotin (site and way of biotinylation not stated)). The experiment in a line: BLI. A general note: In BLI a coated tip is dipped into the sample, and binding shifts an interference pattern.
The target in assay [2] is T1, Carboxyl terminus of Hsc70-interacting protein (CHIP/STUB1), human, WT, full length (human), Q9UNE7.
T1 chain: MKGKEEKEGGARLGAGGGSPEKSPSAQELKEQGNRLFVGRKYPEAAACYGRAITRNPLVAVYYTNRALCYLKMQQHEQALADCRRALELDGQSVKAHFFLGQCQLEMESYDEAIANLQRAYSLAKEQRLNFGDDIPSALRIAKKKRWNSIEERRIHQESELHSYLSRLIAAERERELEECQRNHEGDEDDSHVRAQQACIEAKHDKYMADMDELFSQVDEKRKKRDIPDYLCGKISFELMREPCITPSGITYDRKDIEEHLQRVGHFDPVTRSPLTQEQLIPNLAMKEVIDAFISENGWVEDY
Briefly: cryo-EM structure. The conditions noted are these: remark: other sources report otherwise.

Assay [3] addresses T2, CHIP-optimized peptide CHIPopt (FITC-Ahx-LWWPD).
T2 peptide: {FITC-Ahx}-LWWPD
The experiment in a line: fluorescence polarisation.

Assay [4] addresses T3, FAM-labeled Hsp70 C-terminal peptide (5FAM-Ahx-SSGPTIEEVD).
T3 peptide: {5FAM-Ahx}-SSGPTIEEVD
Briefly: fluorescence polarisation. (In general: Polarisation of emitted light reports the rotation of a fluorescent probe.)

Assay [5] has as its target T2, CHIP-optimized peptide CHIPopt …. The experiment in a line: fluorescence polarisation.
The target of assay [6] is T3, FAM-labeled Hsp70 C-terminal peptide …. The experiment in a line: fluorescence polarisation.

Several values for one entry are separate records, joined by “and”; a condition that tells them apart may be missing. Equal entries are not always repeated. No end group written: not given here. *: point of attachment. FITC = O=C1OC2(c3ccc(O)cc3Oc3cc(O)ccc32)c2ccc(NC(=S)*)cc21; 5FAM = O=C1OC2(c3ccc(O)cc3Oc3cc(O)ccc32)c2ccc(C(=O)*)cc21; Ahx = NCCCCCC(=O)O

B1: Fab 2D2 (CHIP-targeting fragment antigen-binding antibody) (Fab, V domains shown)
VH: QVQLQQSGPGLMKGGQTLSLTCAISGDSVSSNSAAWNWIRQSPSRGLEWLGRTYYRSKWYNEYAVSVKSRITINPDTSKNQFSLQLNSVTPEDTAVYYCARAVAASFDYWGQGTLVTVSS
VL: ETTLTQSPGTLSLSPGERATLSCRASQSVSSTFLAWYQQKPGQAPRLLIYGASRRATGIPDRFSGSGSGTDFTLTISRLEPEDFAVYYCQRYGATYTFGQGTKLEIK
Consider B1, for which the stoichiometry N – broadly, a count of units in the complex or per binding partner – in assay [1] is 1 Fab per CHIP dimer (printed as 2:1 CHIP:Fab). The Kd (usually the constant that tells how readily two partners part at equilibrium) with Biotinylated CHIP is 40 nM.

B2: Fab H1 (CHIP-targeting fragment antigen-binding antibody) (Fab, V domains shown)
VH: VQLVQSGSEVKKPGASVKVSCKASGYTFTNYGISWVRQAPGQGLEWMGWISAYNGNTNYAQNFQGRVTMTTDTSTKTAYMELRSLRSDDTAVYFCARSGYSGYDNNLGAFDIWGQGTMVTVSS
VL: SVVTQPPSVSAAPGQKVTISCSGTSSNIGNSYVTWYQQLPGAAPKLLIYDNNKRPSGIPDRFSGSKSGTSATLGITGLQTGDEADYYCATWDSSLTAGRVFGGGTRLTVL
Consider B2, for which, in assay [1], the “stoichiometry N” value is 1 Fab per CHIP dimer (printed as 2:1 CHIP:Fab) and 2 Fab per CHIP dimer (printed as 2:2 CHIP:Fab). In the assay with Biotinylated CHIP, this molecule returned a Kd of 1100 nM.

B3: Carboxyl terminus of Hsc70-interacting protein (CHIP/STUB1), human, WT, full length (enzyme)
chain: T1 chain
With B3, the stoichiometry N in assay [2] was 2. Further, the entries for the “apparent Kd with Fab 2D2 present” value in assay [3] and in assay [4] were 0.016 nM and 260 nM, respectively. In addition, the “apparent Kd with Fab H1 present” value in assay [5] is 0.01 nM; in assay [6] it was 140 nM.
